Data: the Immune Epitope Database (IEDB)

Each sequence was assayed against HLA-A*02:01 (assay: IEDB peptide-MHC binding, purified MHC/competitive/radioactivity; ≥ and ≤ were set here for values at or beyond the usual limits of such assays). Details: source organism: Trypanosoma cruzi.

| Sequence | IC50 |
| --- | --- |
| TLLYATVEV | 68 nM |
| VVMACLVPAA | 98 nM |
| QLDHGVLLV | 673 nM |
| FTLVAPVSI | 363 nM |
| QMDYSNGLFV | 61 nM |
| RLHLWLSDM | 4910 nM |
| ALSLAAVLV | 112 nM |
| MTSCVSEQL | 348 nM |
| FTSAVLLLV | 10 nM |
| FLAGHPLTNL | 14 nM |
| LMNNAFEWIV | 56 nM |
| CLVPAATASL | 2540 nM |
| FTSAVLLLVV | 918 nM |
| AVLVVMACL | 4150 nM |
| MMSCSSEAT | 1170 nM |
| RALSLAAVL | 3880 nM |
| RVFGLLLLGL | 355 nM |
| FLGGGGAGI | 3580 nM |
| ALSLAAVLVV | 324 nM |
| SIHVTVSNV | 3610 nM |
| SMNATLVQA | 267 nM |
| VMMSCSSEA | 55 nM |
| VMACLVPAA | 10 nM |

| Sequence | IC50 |
| --- | --- |
| KVVSLVILA | 409 nM |
| LLTTSGVSAI | 1110 nM |
| SVFRENLFL | 59 nM |
| LMNNAFEWI | 395 nM |
| WIIKNSWTA | 186 nM |
| AASTLLYATV | 2980 nM |
| RVFTSAVLL | 661 nM |
| LLLLGLWGTA | 888 nM |
| LLLGLWGTA | 944 nM |
| IILNGSLLT | 4330 nM |
| KTWADEYLCV | 444 nM |
| LTNLSEQMLV | 3190 nM |
| LLLGLWGTAA | 241 nM |
| RLLSPTTIV | 290 nM |
| YVNGVVVATV | 466 nM |
| GLMNNAFEWI | 175 nM |
| GLLLLGLWGT | 62 nM |
| WLSDCGEAL | 228 nM |
| FLARLHAAA | 48 nM |
| AANPHATFGV | 2950 nM |
| AMALIGDSTV | 148 nM |
| SLVYVNGVVV | 2880 nM |

Each sequence was assayed against HLA-A*02:01 (assay: IEDB peptide-MHC binding, purified MHC/competitive/radioactivity; filed as Kd, often an IC50 or EC50 that approximates it; ≥ and ≤ were set here for values at or beyond the usual limits of such assays). Details: source organism: Trypanosoma cruzi.

| Sequence | Kd |
| --- | --- |
| YATVEVPSL | 5500 nM |
| LVQAFHSFRA | 6920 nM |
| VTLPTGQCL | ≥ 28200 nM |
| WAFSAIGNV | 16700 nM |
| LLGLWGTAA | 6260 nM |
| VLVVMACLV | 7350 nM |
| GLTFKGPGA | ≥ 43400 nM |
| FANSKFTLVA | ≥ 43400 nM |
| MTEQTDEAV | ≥ 43400 nM |
| LLTTSGVSA | ≥ 28200 nM |
| VLLLVVVMM | ≥ 27900 nM |
| LLVGYNDSA | ≥ 28200 nM |
| MACLVPAAT | ≥ 26800 nM |
| WIVQENNGA | 12800 nM |
| SLSVVRPMT | 8560 nM |
| KALETDVPA | ≥ 43400 nM |
| AIVTCGAETL | ≥ 28200 nM |
| LTFKGPGAWA | ≥ 43400 nM |
| CLLTTSGVSA | 10400 nM |
| GVQGGFVSA | ≥ 43400 nM |

| Sequence | Kd |
| --- | --- |
| LAAVLVVMA | ≥ 22800 nM |
| ALKNNGKVV | ≥ 43400 nM |
| VAVNGPVAV | ≥ 28200 nM |
| MTYTGGVMT | ≥ 28200 nM |
| QVHSSLSVV | ≥ 43400 nM |
| AACIVGCENV | ≥ 28200 nM |
| MALIGDSTV | 17500 nM |
| IVQENNGAV | ≥ 28200 nM |
| STSRVPYDI | ≥ 43400 nM |
| LLVGYNDSAA | ≥ 28200 nM |
| QMSCTDAACI | ≥ 28200 nM |
| NVLLYNRLL | 6030 nM |
| AIVFDHYDV | ≥ 43400 nM |
| WMTYTGGVMT | ≥ 28200 nM |
| STHCSGPSV | ≥ 28200 nM |
| FTDNKSCVSL | 14400 nM |
| SVPLNQCNWL | ≥ 28200 nM |
| LVYVNGVVV | 9070 nM |
| WADEYLCVNA | ≥ 43400 nM |
| RIILNGSLL | ≥ 43400 nM |
